The test system of the data set is ATP. Briefly: switch fluorescence ratio, 500 uM ATP over buffer (Cy3 cluster intensity, sum of 5 cycles each) (fold (ratio)); higher = stronger signal-on switching upon ATP binding; sequences stand for … in TCGTCGGCAGCGTCAGATGTGTATAAGAGACAGTTTTTTTTTTTTTTTTTTTTTTTTT…TC. The settings on record: aptamer strand: ATP DNA aptamer (quencher-CACCTGGGGGAGTATTGCGGAGGAAGG + anchor), 100 nM annealed; ATP concentration: 500 uM. In a few lines: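 Between each of five buffer/ATP cycles, the flow-cell was stripped with NaOH and re-annealed. Each cycle imaged Cy3-labelled switching-strand clusters, annealed to 100 nM quencher-labelled ATP aptamer on a modified Illumina MiSeq flow-cell, first in selection buffer and then after 15 min with 500 uM ATP at 22 °C. The fluorescence ratio is summed target-cycle over summed buffer-cycle Cy3 intensity per cluster, averaged per switch-domain sequence, with clusters outside 100-1000 RFU excluded.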

± gives the standard deviation of the averaged measurements.
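Also: ATP exposure 15 min at 22 °C before imaging.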

Consider GTGTATAGTG, for which the switch fluorescence ratio was 0.982 ± 0.018.

On to GTGTATCGGT, for which the switch fluorescence ratio came to 0.994 ± 0.023.

GTGTCAGGGG: the switch fluorescence ratio was determined as 1.04 ± 0.07.

Take GTGTCCCCTG: the switch fluorescence ratio came out at 0.981 ± 0.04.

For GTGTCCTGTA, the switch fluorescence ratio was determined as 0.998 ± 0.072.

In the case of GTGTCGAAGG, the switch fluorescence ratio was 0.976 ± 0.051.

In the case of GTGTCGTGGC, the switch fluorescence ratio worked out at 1.012 ± 0.0029.

On to GTGTGAAAGG, for which the switch fluorescence ratio came to 1 ± 0.013.

In the case of GTGTGAGTGT, the switch fluorescence ratio is 0.973 ± 0.016.

In the case of GTGTGGGGGC, the switch fluorescence ratio is 1.008 ± 0.0072.

On to GTGTGGGGGG, for which the switch fluorescence ratio turned out to be 1.02 ± 0.075.

Consider GTGTGGTATA, for which the switch fluorescence ratio stood at 0.982 ± 0.012.

With GTGTGGTGCA, the switch fluorescence ratio turned out to be 0.9802 ± 0.0045.

As to GTGTGTGGAC, the switch fluorescence ratio turned out to be 1.01 ± 0.026.

Take GTGTGTTCGC: the switch fluorescence ratio was 0.9546 ± 0.0069.

Take GTGTTAATTA: the switch fluorescence ratio came out at 0.989 ± 0.021.

Take GTGTTACGGG: the switch fluorescence ratio came to 0.985 ± 0.016.

With GTGTTACTGT, the switch fluorescence ratio amounted to 0.959 ± 0.026.

For GTGTTAGCTG, the switch fluorescence ratio was 1.02 ± 0.028.

As for GTGTTAGGGC, the switch fluorescence ratio was 0.9919 ± 0.0057.

With GTGTTAGTAT, the switch fluorescence ratio worked out at 1.02 ± 0.031.

Take GTGTTAGTTA: the switch fluorescence ratio was 1.01 ± 0.011.

As for GTGTTATCTG, the switch fluorescence ratio was determined as 0.978 ± 0.012.

As for GTGTTATGAG, the switch fluorescence ratio was found to be 0.995 ± 0.067.

Regarding GTGTTCTAGT, the switch fluorescence ratio came out at 0.955 ± 0.012.

As for GTGTTGCGGC, the switch fluorescence ratio was determined as 0.986 ± 0.016.

Regarding GTGTTGGAGG, the switch fluorescence ratio was found to be 0.996 ± 0.017.

On to GTGTTGTTGG, for which the switch fluorescence ratio was found to be 0.986 ± 0.019.

Take GTGTTTCCTG: the switch fluorescence ratio was determined as 0.994 ± 0.028.

For the sequence GTGTTTCCTT, the switch fluorescence ratio was 1.02 ± 0.036.

Take GTGTTTGACA: the switch fluorescence ratio was determined as 0.9604 ± 0.005.

Turning to GTGTTTGTTC, the switch fluorescence ratio was found to be 0.968 ± 0.013.

Regarding GTGTTTTACG, the switch fluorescence ratio was found to be 1.01 ± 0.021.

Consider GTTAAAACTT, for which the switch fluorescence ratio is 1.005 ± 0.0097.

In the case of GTTAAAGGTA, the switch fluorescence ratio was found to be 0.962 ± 0.019.

GTTAAATGTG: the switch fluorescence ratio was found to be 0.972 ± 0.024.

Turning to GTTAAATTTT, the switch fluorescence ratio was 0.986 ± 0.024.

As for GTTAACGTGG, the switch fluorescence ratio is 0.99 ± 0.019.

For GTTAACTGAG, the switch fluorescence ratio was determined as 1.03 ± 0.041.

For GTTAAGGTTT, the switch fluorescence ratio amounted to 1.03 ± 0.063.

On to GTTAATGGAA, for which the switch fluorescence ratio came out at 0.986 ± 0.039.

With GTTACAATGG, the switch fluorescence ratio was 0.991 ± 0.038.

In the case of GTTACATAGC, the switch fluorescence ratio worked out at 1.08 ± 0.014.

Turning to GTTACATGCG, the switch fluorescence ratio came to 0.976 ± 0.02.

With GTTACGGCAA, the switch fluorescence ratio turned out to be 1.27 ± 0.064.

For the sequence GTTACTAATG, the switch fluorescence ratio is 0.9996 ± 0.0029.

As for GTTACTGGAC, the switch fluorescence ratio was determined as 1.12 ± 0.14.

With GTTAGAGCCG, the switch fluorescence ratio was found to be 1.09 ± 0.062.

Regarding GTTAGATACG, the switch fluorescence ratio was found to be 1 ± 0.028.

GTTAGATGGG: the switch fluorescence ratio was determined as 1 ± 0.034.

As for GTTAGATGGT, the switch fluorescence ratio came out at 0.9851 ± 0.0037.

With GTTAGGCCAG, the switch fluorescence ratio is 0.986 ± 0.041.

With GTTAGGGGCG, the switch fluorescence ratio is 0.982 ± 0.013.

With GTTAGGGGGT, the switch fluorescence ratio amounted to 0.994 ± 0.027.

For GTTAGGTAGG, the switch fluorescence ratio was 0.9818 ± 0.005.

On to GTTAGTACTG, for which the switch fluorescence ratio is 0.96042 ± 0.00063.

For GTTATAAAAA, the switch fluorescence ratio was determined as 1.01 ± 0.07.

As for GTTATACGTA, the switch fluorescence ratio amounted to 1.03 ± 0.019.

With GTTATAGGAG, the switch fluorescence ratio came out at 0.99 ± 0.019.

With GTTATAGGGG, the switch fluorescence ratio turned out to be 0.99 ± 0.018.

With GTTATAGGTG, the switch fluorescence ratio stood at 1.06 ± 0.065.

In the case of GTTATAGTGG, the switch fluorescence ratio worked out at 0.981 ± 0.01.

As to GTTATGAGTT, the switch fluorescence ratio is 0.975 ± 0.029.

In the case of GTTATGCTCT, the switch fluorescence ratio was found to be 1.01 ± 0.014.

In the case of GTTATGGGGG, the switch fluorescence ratio worked out at 1.04 ± 0.013.

In the case of GTTATGGGTG, the switch fluorescence ratio was 0.983 ± 0.029.

Regarding GTTATTACGT, the switch fluorescence ratio is 1.03 ± 0.021.

With GTTATTAGCT, the switch fluorescence ratio was determined as 0.992 ± 0.013.

With GTTATTATTC, the switch fluorescence ratio was 0.9922 ± 0.0057.

As to GTTATTATTG, the switch fluorescence ratio stood at 1.02 ± 0.013.

GTTATTGGAG: the switch fluorescence ratio stood at 0.999 ± 0.026.

GTTATTGGGA: the switch fluorescence ratio was 0.99 ± 0.051.

Regarding GTTATTGTTT, the switch fluorescence ratio was 0.983 ± 0.041.

Regarding GTTATTTACT, the switch fluorescence ratio is 1.024 ± 0.0033.

For GTTATTTAGG, the switch fluorescence ratio is 0.9966 ± 0.0084.

In the case of GTTCAAAAGG, the switch fluorescence ratio came out at 0.919 ± 0.028.

Turning to GTTCAAAGGT, the switch fluorescence ratio stood at 0.96 ± 0.032.

On to GTTCAAATCA, for which the switch fluorescence ratio was 0.997 ± 0.047.

In the case of GTTCAATTGG, the switch fluorescence ratio was found to be 0.98 ± 0.021.

For the sequence GTTCACGTAA, the switch fluorescence ratio came to 1.16 ± 0.15.

Take GTTCACTTTT: the switch fluorescence ratio was determined as 1.02 ± 0.036.

As to GTTCAGGGCT, the switch fluorescence ratio turned out to be 1.01 ± 0.02.

Consider GTTCGAGGGC, for which the switch fluorescence ratio was 1.046 ± 0.002.

Regarding GTTCGCATTG, the switch fluorescence ratio was found to be 1.08 ± 0.024.

GTTCGCGGTG: the switch fluorescence ratio came out at 0.998 ± 0.017.

For GTTCTCAGTG, the switch fluorescence ratio amounted to 1.01 ± 0.03.

For GTTCTGCAAT, the switch fluorescence ratio turned out to be 3.97 ± 0.11.

As for GTTCTGGGAG, the switch fluorescence ratio amounted to 1 ± 0.012.

Take GTTCTTGCGG: the switch fluorescence ratio is 0.959 ± 0.022.

Consider GTTCTTTGG, for which the switch fluorescence ratio was 0.9949 ± 0.0077.

For GTTGAAAAAA, the switch fluorescence ratio was found to be 1.31 ± 0.73.

In the case of GTTGAAAAGG, the switch fluorescence ratio was determined as 0.971 ± 0.051.

In the case of GTTGAAGGGA, the switch fluorescence ratio is 0.983 ± 0.018.

As to GTTGAAGTTG, the switch fluorescence ratio amounted to 0.968 ± 0.02.

As to GTTGACAGG, the switch fluorescence ratio came out at 1.025 ± 0.0066.

Turning to GTTGACCGGT, the switch fluorescence ratio amounted to 1 ± 0.016.

Turning to GTTGACGGGG, the switch fluorescence ratio stood at 1.01 ± 0.021.

For GTTGACGGTG, the switch fluorescence ratio came to 0.982 ± 0.039.

As for GTTGACTTGA, the switch fluorescence ratio came to 1.02 ± 0.03.

On to GTTGAGGGA, for which the switch fluorescence ratio was 1.04 ± 0.079.

In the case of GTTGAGGTCG, the switch fluorescence ratio turned out to be 0.995 ± 0.022.

GTTGAGTATA: the switch fluorescence ratio worked out at 1.01 ± 0.033.

GTTGATGTAT: the switch fluorescence ratio was found to be 0.987 ± 0.021.

On to GTTGCACTTT, for which the switch fluorescence ratio is 0.983 ± 0.052.

Consider GTTGCATGGG, for which the switch fluorescence ratio is 0.963 ± 0.012.

With GTTGCCGGTT, the switch fluorescence ratio was found to be 1.026 ± 0.008.

For GTTGCCTTGC, the switch fluorescence ratio was found to be 1.06 ± 0.011.

Turning to GTTGCGGAAT, the switch fluorescence ratio was 1.03 ± 0.023.

As to GTTGCGGGTT, the switch fluorescence ratio was 1.01 ± 0.039.

Turning to GTTGCGTTTT, the switch fluorescence ratio is 0.9852 ± 0.0095.

GTTGCTAGGT: the switch fluorescence ratio is 0.9984 ± 0.0044.

As to GTTGGAATGA, the switch fluorescence ratio worked out at 1 ± 0.037.

As for GTTGGACGCT, the switch fluorescence ratio is 0.986 ± 0.029.

For the sequence GTTGGAGAGG, the switch fluorescence ratio is 0.974 ± 0.087.

GTTGGAGATT: the switch fluorescence ratio is 0.961 ± 0.042.

For the sequence GTTGGAGGGT, the switch fluorescence ratio is 0.977 ± 0.047.

Take GTTGGAGTGC: the switch fluorescence ratio was determined as 0.9817 ± 0.0017.

For the sequence GTTGGCTTTG, the switch fluorescence ratio came to 0.997 ± 0.048.

Take GTTGGGACGA: the switch fluorescence ratio came to 1 ± 0.015.

For GTTGGGAGGA, the switch fluorescence ratio turned out to be 0.989 ± 0.018.

The values above are taken from the supplement of paper PMC10126150.
